Measured values published in patent publication US20260132182A1 (published 2026).
Starred links: 1 amine or outer side, 2 acyl side, 3 side chain; linkers in the order of their positions; H or OH if unused. Non-standard residues stand in square brackets, D forms with d. Groups on a side chain read outwards from the residue. *: point of attachment. Undecanoyl(11-OPh(4-COOH)) = O=C(O)c1ccc(OCCCCCCCCCCC(=O)*)cc1; Decanoyl(10-(4-HOOC-PhO)) = O=C(O)c1ccc(OCCCCCCCCCC(=O)*)cc1; Decanoyl(10-O(3-COOH-Ph)) = O=C(O)c1cccc(OCCCCCCCCCC(=O)*)c1; C20 diacid = O=C(O)CCCCCCCCCCCCCCCCCCC(=O)*; C18 diacid = O=C(O)CCCCCCCCCCCCCCCCC(=O)*; C16 diacid = O=C(O)CCCCCCCCCCCCCCC(=O)*; γGlu = O=C(O)[C@H](CCC(=O)[*:2])N[*:1]; Trx = NC[C@H]1CC[C@H](C(=O)O)CC1; AEEA = NCCOCCOCC(=O)O; Aib = CC(C)(N)C(=O)O

T1: human amylin-3 (a) receptor (human, UniProt P30988 25-474; O60896 24-148)
T1 sequence (looked up) 1: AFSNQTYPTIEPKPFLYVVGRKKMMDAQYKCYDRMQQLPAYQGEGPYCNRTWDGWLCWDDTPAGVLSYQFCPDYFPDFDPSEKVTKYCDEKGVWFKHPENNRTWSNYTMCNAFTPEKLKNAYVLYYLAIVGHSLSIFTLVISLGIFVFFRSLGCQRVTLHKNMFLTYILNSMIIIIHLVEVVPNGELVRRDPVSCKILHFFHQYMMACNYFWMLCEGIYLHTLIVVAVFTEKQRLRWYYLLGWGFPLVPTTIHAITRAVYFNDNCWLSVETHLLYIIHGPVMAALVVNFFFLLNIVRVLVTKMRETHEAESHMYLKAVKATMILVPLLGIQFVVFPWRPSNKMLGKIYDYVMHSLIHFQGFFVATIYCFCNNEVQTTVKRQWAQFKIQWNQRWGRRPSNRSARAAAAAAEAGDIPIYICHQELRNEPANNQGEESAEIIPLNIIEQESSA
T1 sequence (looked up) 2: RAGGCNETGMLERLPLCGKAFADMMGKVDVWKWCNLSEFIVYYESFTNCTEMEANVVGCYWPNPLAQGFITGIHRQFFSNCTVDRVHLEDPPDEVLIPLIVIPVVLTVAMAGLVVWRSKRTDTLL

B1: Compound 0263 (peptide)
peptide: H[Aib]EGTFTSDVSSYLEEQAAREFIAWLVRGRK([AEEA-AEEA-γGlu-Trx-C20 diacid])EASELSTAALGRLSAELHELATLPRTETGSGSP-NH2
B2: Compound 0264 (peptide)
peptide: H[Aib]EGTFTSDVSSYLEEQAAREFIAWLVRGK([AEEA-AEEA-γGlu-Trx-C20 diacid])GGGGEASELSTAALGRLSAELHELATLPRTETGSGSP-NH2
B3: Compound 0191 (peptide)
peptide: H[Aib]EGTFTSDVSSYLEGQAAREFIAWLVRGRGQEPK([AEEA-AEEA-γGlu-C18 diacid])GQAPASRLSTEALGRLSAELHELATLPRTETGSGSP-NH2
B4: Compound 0273 (peptide)
peptide: HWEGTFTSDK([AEEA-AEEA-γGlu-C18 diacid])SSYLEEQAAREFIEWLVRGRGEASELSTAALGRLSAELHELATLPRTETGSGSP-NH2
B5: Compound 0268 (peptide)
peptide: HWEGTFTSDVSSYLEEQAAREFIAWLVRGRK([AEEA-AEEA-γGlu-Trx-C20 diacid])GGGGEASELSTAALGRLSAELHELATLPRTETGSGSP-NH2
B6: Compound 0233 (peptide)
peptide: HWEGTFTSDVSSYLEEQAAREFIEWLVRGK([AEEA-AEEA-γGlu-Decanoyl(10-(4-HOOC-PhO))])GEGGGGGASELSTAALGRLSK([AEEA-AEEA-γGlu-Decanoyl(10-(4-HOOC-PhO))])ELHELATLPRTETGSGSP-NH2
B7: Compound 0270 (peptide)
peptide: HWEGTFTSDVSSYLEEK([AEEA-AEEA-γGlu-Trx-C20 diacid])AAREFIEWLVRGRGEASELSTAALGRLSAELHELATLPRTETGSGSP-NH2
B8: Compound 0040 (peptide)
peptide: H[Aib]EGTFTSDVSSYLEGQAAK([AEEA-AEEA-γGlu-C18 diacid])EFIAWLVRGRGGGGEASELSTAALGRLSAELHELATLPRTETGSGSP-NH2
B9: Compound 0266 (peptide)
peptide: H[Aib]EGTFTSDK([AEEA-AEEA-γGlu-Trx-C20 diacid])SSYLEEQAAREFIAWLVRGRGGGGEASELSTAALGRLSAELHELATLPRTETGSGSP-NH2
B10: Compound 0235 (peptide)
peptide: H[Aib]EGTFTSDVSSYLEEQAAREFIAWLVRGK([AEEA-AEEA-γGlu-Decanoyl(10-O(3-COOH-Ph))])K([AEEA-AEEA-γGlu-Decanoyl(10-O(3-COOH-Ph))])GGGGASELSTAALGRLSAELHELATLPRTETGSGSP-NH2
B11: Compound 0261 (peptide)
peptide: H[Aib]EGTFTSDK([AEEA-AEEA-γGlu-C16 diacid])SSYLEEQAAREFIAWLVRGRGGGGGEASELSTAALGRLSAELHELATLK([AEEA-AEEA-γGlu-C16 diacid])RTETGSGSP-NH2
B12: Compound 0267 (peptide)
peptide: HWEGTFTSDVSSYLEEQAAREFIEWLVRGK([AEEA-AEEA-γGlu-Trx-C20 diacid])GEASELSTAALGRLSAELHELATLPRTETGSGSP-NH2
B13: Compound 0269 (peptide)
peptide: HWEGTFTSDVSSYLEEQAAREFIEWLVRGRK([AEEA-AEEA-γGlu-Trx-C20 diacid])GGGGEASELSTAALGRLSAELHELATLPRTETGSGSP-NH2
B14: Compound 0202 (peptide)
peptide: H[Aib]EGTFTSDVSSYLEGQAAK([AEEA-AEEA-γGlu-C20 diacid])EFIAWLVRGRGQEPGQAPEASELSTAALGRLSAELHELATLPRTETGSGSP-NH2
B15: Compound 0042 (peptide)
peptide: H[Aib]EGTFTSDVSSYLEGQAAKEFIAWLVRGRK([AEEA-AEEA-γGlu-C18 diacid])GGEASELSTAALGRLSAELHELATLPRTETGSGSP-NH2
B16: Compound 0255 (peptide)
peptide: HWEGTFTSDVSSYLEEQAARK([AEEA-AEEA-γGlu-Undecanoyl(11-OPh(4-COOH))])FIEWLVRGRGEGGGGGASELSTAALGRLSK([AEEA-AEEA-γGlu-Undecanoyl(11-OPh(4-COOH))])ELHELATLPRTETGSGSP-NH2
B17: Compound 0232 (peptide)
peptide: HWEGTFTSDVSSYLEEQAARK([AEEA-AEEA-γGlu-Decanoyl(10-(4-HOOC-PhO))])FIEWLVRGRGEGGGGGASELSTAALGRLSAELHELK([AEEA-AEEA-γGlu-Decanoyl(10-(4-HOOC-PhO))])TLPRTETGSGSP-NH2
B18: Compound 0265 (peptide)
peptide: H[Aib]EGTFTSDVSSYLEEK([AEEA-AEEA-γGlu-Trx-C20 diacid])AAREFIAWLVRGRGGGGEASELSTAALGRLSAELHELATLPRTETGSGSP-NH2
B19: Compound 0231 (peptide)
peptide: HWEGTFTSDVSSYLEEQAARK([AEEA-AEEA-γGlu-Decanoyl(10-(4-HOOC-PhO))])FIEWLVRGRGEGGGGGASELSTAALGRLSK([AEEA-AEEA-γGlu-Decanoyl(10-(4-HOOC-PhO))])ELHELATLPRTETGSGSP-NH2
B20: Compound 0271 (peptide)
peptide: HWEGTFTSDVSSYLEEK([AEEA-AEEA-γGlu-C18 diacid])AAREFIEWLVRGRGEASELSTAALGRLSAELHELATLPRTETGSGSP-NH2
B21: Compound 0259 (peptide)
peptide: H[Aib]EGTFTSDK([AEEA-AEEA-γGlu-C16 diacid])SSYLEEQAAREFIAWLVRGRGGGGGEASELSTAALGRLSAELHK([AEEA-AEEA-γGlu-C16 diacid])LATLPRTETGSGSP-NH2
B22: Compound 0272 (peptide)
peptide: HWEGTFTSDK([AEEA-AEEA-γGlu-Trx-C20 diacid])SSYLEEQAAREFIEWLVRGRGEASELSTAALGRLSAELHELATLPRTETGSGSP-NH2
B23: Compound 0254 (peptide)
peptide: HWEGTFTSDVSSYLEEQAARK([AEEA-AEEA-γGlu-Trx-C20 diacid])FIEWLVRGRGEGGGGGASELSTAALGRLSAELHELATLPRTETGSGSP-NH2
B24: Compound 0234 (peptide)
peptide: HWEGTFTSDVSSYLEEQAAREFIEWLVRGK([AEEA-AEEA-γGlu-Decanoyl(10-(4-HOOC-PhO))])GEGGGGGASELSTAALGRLSAELHELK([AEEA-AEEA-γGlu-Decanoyl(10-(4-HOOC-PhO))])TLPRTETGSGSP-NH2
B25: Compound 0260 (peptide)
peptide: H[Aib]EGTFTSDK([AEEA-AEEA-γGlu-C16 diacid])SSYLEEQAAREFIAWLVRGRGGGGGEASELSTAALGRLSAELHELK([AEEA-AEEA-γGlu-C16 diacid])TLPRTETGSGSP-NH2

Key:
[1] = target: human GLP-1 receptor (human, UniProt P43220 24-463); experiment: cell-based or functional assay
[2] = target: T1, human amylin-3 (a) receptor; experiment: cell-based or functional assay

Row | Binder | Human GLP-1R potency [EC50 (pM)] [1] | Human AmyR3 potency [EC50 (pM)] [2]
1 | B1 | 13.8 pM | 25.2 pM
2 | B2 | 6.5 pM | 11.7 pM
3 | B3 | 5.9 pM | 54.8 pM
4 | B4 | 24.9 pM | 18 pM
5 | B5 | 26.4 pM | 14.4 pM
6 | B6 | 46.4 pM | 182 pM
7 | B7 | 6.3 pM | 8.6 pM
8 | B8 | 20.7 pM | 7.7 pM
9 | B9 | 6.3 pM | 8.5 pM
10 | B10 | 10.4 pM | 24 pM
11 | B11 | 17.4 pM | 23.9 pM
12 | B12 | 28.5 pM | 45.3 pM
13 | B13 | 7.7 pM | 7.5 pM
14 | B14 | 10.5 pM | 28.4 pM
15 | B15 | 16.2 pM | 10.8 pM
16 | B16 | 2.5 pM | 28.6 pM
17 | B17 | 6.4 pM | 74.2 pM
18 | B18 | 6 pM | 8.1 pM
19 | B19 | 5.6 pM | 68 pM
20 | B20 | 4.6 pM | 15.2 pM
21 | B21 | 15.8 pM | 12 pM
22 | B22 | 9.2 pM | 11.3 pM
23 | B23 | 8.9 pM | 7.7 pM
24 | B24 | 38.9 pM | 38.4 pM
25 | B25 | 11.9 pM | 41.8 pM
